Measured values reported in the supplement of paper PMC9732359.
± gives the uncertainty stated by the source.

Experiment: protein stability index of a GFP-peptide fusion (yeast GPS) (PSI 1-4); higher = more stable; sorted into four equal gates, so the index is relative within each strain
Settings: doa10∆
How it was run: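 Plasmids isolated from each sorting gate were PCR-amplified and Illumina-sequenced, and barcodes assigned the reads to strains. The gates, four of equal size, were set by GFP/Cherry fluorescence ratio on mid-log cultures in leucine-free medium. These cultures were yeast carrying a pooled library of tiled 17-residue yeast protein peptides fused downstream of GFP on a plasmid that also expresses Cherry. The protein stability index is the sum of every gate's read frequency times its gate number.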
IEQEKQEQQEQDKKKKS [PRE6] showed a protein stability index of 2.17 ± 0.069. Work on IESQMRDLILTEYGRKY [PRP8] yielded a protein stability index of 2.2 ± 0.1. IETEFLLFTVKLKGLMK [IRR1] showed a protein stability index of 3.12 ± 0.14.

Same assay, conditions: pdr5∆
In the case of GTFKSTLDREYITLKAT [QCR2], the protein stability index is reported as 1.44 ± 0.044. In the case of GTGLQSYLEERERQVNE [RPC53], the protein stability index is reported as 3.24 ± 0.12. With GTLDINPDDDYGFKQEI [FAS1] the protein stability index was 3.21 ± 0.15. Sequence GTLGEIFIRCNNVLYIR [SMX3] has a protein stability index of 3.27 ± 0.1. GTSLKVAPVSEIVNMVP [SIR2] gave a protein stability index of 2.65 ± 0.089. GTTATGTGLFGQQTAQP [YGR119C/NUP57] showed a protein stability index of 2.76 ± 0.079. Work on GTWSAKEAVFKSLGVKS [FAS2] yielded a protein stability index of 3.34 ± 0.089. In the case of GVDAMSVDDLKKLNKNK [RPL1A], the protein stability index is reported as 3.14 ± 0.12. For GVHDGEVEPALLLLQDY [RPN1], the protein stability index was 3.46 ± 0.17. In the case of GVHTGQFIYAGKKASLN [RPL2A], the protein stability index is reported as 3.51 ± 0.19. GVIALGQFVTLGCTLVT [RMP1] gave a protein stability index of 1.36 ± 0.15. GVLLRDAHGVTQARVIT [RPS13] showed a protein stability index of 2.57 ± 0.093. In the case of GVTDLFRHFIGIKAKHD [ISW2], the protein stability index is reported as 1.43 ± 0.11. GVTSLGIKATNGVVIAT [PRE8] gave a protein stability index of 2.62 ± 0.16. Sequence GVTSLIKNLGLPSDRCS [RPP1] has a protein stability index of 2.26 ± 0.072. GWYHSHPGFGCWLSSVD [RPN11] gave a protein stability index of 3.09 ± 0.072. With HAERDLALAETLKLRAR [SRP68] the protein stability index was 2.74 ± 0.27. HAGTAIGIMASDGIVLA [PRE9] showed a protein stability index of 3.02 ± 0.14. With HALYLAPSGIRMHLAPA [SSN2] the protein stability index was 2.05 ± 0.085. With HDELDMNECIADQDMED [ESC2] the protein stability index was 2.64 ± 0.11. HDFIKGLIMLNLQPASV [NUT1] gave a protein stability index of 1.24 ± 0.071. In the case of HDGGFDLVHIKDSLDNT [RPS4A], the protein stability index is reported as 2.26 ± 0.06. In the case of HEAYSIIEKITDQILQL [RRP45], the protein stability index is reported as 2.31 ± 0.2. With HELITNIGETAGVVQDI [RPB9] the protein stability index was 2.79 ± 0.054. HFELGGEKKQKGQALQF [RPL42A] gave a protein stability index of 2.88 ± 0.1. HFSKDDYSPESKGFVEN [RPO21] gave a protein stability index of 2.28 ± 0.17. With HFVQEEPLAFYLEESFT [RGR1] the protein stability index was 2.43 ± 0.039. HGGGNHQHIGKASTISR [RPL2A] showed a protein stability index of 3.31 ± 0.052. Sequence HGIVFQHPFPLAHSQHR [SSN2] has a protein stability index of 2.23 ± 0.068. With HGMTLRESFEDNVVRFL [RPO21] the protein stability index was 3.09 ± 0.12. HGQKGVCGIIVKQEDMP [RET1] gave a protein stability index of 1.35 ± 0.16. HIGHSALKGPVRDKLDE [DPB4] gave a protein stability index of 3.18 ± 0.068. Work on HIILDTISECNLYDDVK [MED1] yielded a protein stability index of 3.18 ± 0.087. HILFQNNPDMMIQPPQQ [ROX3] gave a protein stability index of 2.96 ± 0.07. HIRRMVPLAMGIVSVSD [RPN1] gave a protein stability index of 1.61 ± 0.052. In the case of HISKIIGLDTQQVEGKL [RPN6], the protein stability index is reported as 3.43 ± 0.093. With HKHALHGTAKALAAAKK [RPL29] the protein stability index was 2.425 ± 0.02. For HKYVLTLQLYMVHREFL [RGR1], the protein stability index was 1.47 ± 0.037. With HLGLDDPQDVFNYNIFM [SIR2] the protein stability index was 3.2 ± 0.14. With HLHDAVFVNTGLQNVRK [SWP82] the protein stability index was 2.84 ± 0.076. Work on HLIPNEIKGASETPLQK [RPN4] yielded a protein stability index of 1.57 ± 0.12. In the case of HLRYQPDGVVVHRDDPA [SNF6], the protein stability index is reported as 3.29 ± 0.1. In the case of HLSSKTGLHFGRLSLRS [QCR10], the protein stability index is reported as 3.06 ± 0.11. HMADAKIMPKDILQITK [SIR4] showed a protein stability index of 3.29 ± 0.068. For HMAKGLYYGSYRSPRVL [COB], the protein stability index was 1.1 ± 0.12. HMATALQIAQLTLKHRQ [RPN10] gave a protein stability index of 1.8 ± 0.084. In the case of HMDYDGNIVKEFENKFQ [YMR129W/POM152], the protein stability index is reported as 3.33 ± 0.082. With HNGAPHHAIEEAESLLQ [RPO21] the protein stability index was 3.39 ± 0.18. In the case of HPAYLFKGLETPLKARQ [YLR018C/POM34], the protein stability index is reported as 2.26 ± 0.057. In the case of HPPDFKRMLLSLSEFAR [SNF2], the protein stability index is reported as 1.33 ± 0.036. With HPTVVDAIDNSDEITQD [IRR1] the protein stability index was 3.17 ± 0.071. Sequence HQSELIIKQTVHPIPDV [YMR129W/POM152] has a protein stability index of 2.86 ± 0.055. In the case of HRDAYSGGSVNLYHVTE [PRE2], the protein stability index is reported as 3.32 ± 0.086. HRVAENWRKQKGIDSVV [RPL32] gave a protein stability index of 2.61 ± 0.17. With HRWGTKKLPRKTHRGLR [RPL3] the protein stability index was 3.04 ± 0.13. HSKRELDSGDDQPQSSE [BRR2] showed a protein stability index of 3.38 ± 0.069. For HSNESSNETIGEIQLLF [IRR1], the protein stability index was 2.83 ± 0.14. With HSSSVFKGTDFVHSVKK [SRB4] the protein stability index was 2.93 ± 0.074. Sequence HTATDIYQTLIALNLDT [SNF2] has a protein stability index of 2.36 ± 0.034. In the case of HTDVSSSLEARYFFYLS [RPN3], the protein stability index is reported as 3.23 ± 0.1. Sequence HTLDIINVLTDQNPIQV [RPS5] has a protein stability index of 2.33 ± 0.077. For HTSSSDGNNEIFTCQIM [RPN4], the protein stability index was 2.89 ± 0.082. HVIQIPLNKPLLTEELA [TAF14] showed a protein stability index of 2.39 ± 0.037. Sequence HWPLNWYLILSIISSKT [RGR1] has a protein stability index of 1.5 ± 0.08. Sequence HYLFNTFTFTAHMGVLL [SWP82] has a protein stability index of 1.68 ± 0.036. IAAERAARKAANKEKRA [RPL7B] showed a protein stability index of 3.59 ± 0.21. Sequence IAAMVAQKCGWTIPHKK [SIR2] has a protein stability index of 2.41 ± 0.2. In the case of IAARRTGLLRGSQKTQD [RPL2A], the protein stability index is reported as 2.73 ± 0.064. In the case of IADSTHVKRITKIAQSQ [ECM29], the protein stability index is reported as 1.71 ± 0.059. Work on IAEGQKKFATVPTGGAS [RPP2B] yielded a protein stability index of 2.89 ± 0.056. In the case of IAFASNYGIVELDPECQ [RRP43], the protein stability index is reported as 2.68 ± 0.055. Sequence IAIIKDTSDIIVDPTAE [RRP46] has a protein stability index of 1.92 ± 0.047. Sequence IAKFERSEEEVTKLNVL [YIL149C/MLP2] has a protein stability index of 3.46 ± 0.093. Sequence IAKTFTVDVSSPTENGV [RPL22A] has a protein stability index of 3 ± 0.1. Work on IALNLASKKFGKICLIL [SSN2] yielded a protein stability index of 2.83 ± 0.062. Work on IAVLIELLEERFQDSNP [YCS4] yielded a protein stability index of 2.06 ± 0.058. ICEDPETAKKITFHPKI [SMC2] gave a protein stability index of 2.74 ± 0.084. IDAALDKQYRTAVATLL [SMC3] gave a protein stability index of 2.17 ± 0.079. With IDEDKLYPSFKPIYKDT [SSN2] the protein stability index was 3.04 ± 0.11. IDESLFNLLILSLNKRI [YCG1] gave a protein stability index of 2.25 ± 0.062. With IDEVFSWYLNTFDGIRM [GRR1] the protein stability index was 1.83 ± 0.039. For IDFAPTSPFGGARPGRV [RPS9A], the protein stability index was 2.53 ± 0.074. IDFFKTDDSFEDKVFAS [BRN1] showed a protein stability index of 2.88 ± 0.06. In the case of IDKLEDLSRIMDWLDNW [ITC1], the protein stability index is reported as 2.67 ± 0.23. For IDKNHGFERLTVNEPQM [SRB7], the protein stability index was 3.25 ± 0.075. IDLCHDFPHLTPKLQTQ [YCS4] gave a protein stability index of 2.65 ± 0.038. Sequence IDLLTFQYGSRLPTFLK [RPP1] has a protein stability index of 1.84 ± 0.052. IDLLWKGKTPKNAAESS [PRP28] gave a protein stability index of 3.12 ± 0.18. Work on IDNSPQAISYLHKLQRM [GRR1] yielded a protein stability index of 2.48 ± 0.047. IDSVEVETNTTVLADEF [RPB3] showed a protein stability index of 3.17 ± 0.071. In the case of IDVDMDASPAPSNESCS [SRB5], the protein stability index is reported as 2.58 ± 0.05. Sequence IEANVTVKTSDDYVLRI [RPS1A] has a protein stability index of 2.9 ± 0.038. Sequence IEDRDFLVRYACEPTAE [SIR3] has a protein stability index of 2.83 ± 0.067. IEEQGWGGFPLDISVFL [TAF14] gave a protein stability index of 3.4 ± 0.053. IEIMGILMGFTLKDNIV [RRI1] showed a protein stability index of 2.15 ± 0.076. In the case of IEKFEQVPDSLDDQIFV [RPN6], the protein stability index is reported as 3.35 ± 0.065. IEKNVMESIGSDILTAE [RRP4] gave a protein stability index of 3.04 ± 0.19.
